From patent US20250035633A1 (published 2025) come the findings set out here.

For experiment [1], the target named is T1, recombinant CDH17-hFc (human, UniProt Q12864 23-787). Put plainly: ELISA.
For experiment [2], the target named is T1, recombinant CDH17-hFc. Put plainly: OCTET BLI.
The target in experiment [3] is T1, recombinant CDH17-hFc. Put plainly: ELISA. This is another data set of the same source.
Experiment [4] has as its target T1, recombinant CDH17-hFc. Put plainly: OCTET BLI. This is another data set of the same source.

Read-outs that look alike come from different tables or passages of the source.

T1 sequence (Q12864 23-787): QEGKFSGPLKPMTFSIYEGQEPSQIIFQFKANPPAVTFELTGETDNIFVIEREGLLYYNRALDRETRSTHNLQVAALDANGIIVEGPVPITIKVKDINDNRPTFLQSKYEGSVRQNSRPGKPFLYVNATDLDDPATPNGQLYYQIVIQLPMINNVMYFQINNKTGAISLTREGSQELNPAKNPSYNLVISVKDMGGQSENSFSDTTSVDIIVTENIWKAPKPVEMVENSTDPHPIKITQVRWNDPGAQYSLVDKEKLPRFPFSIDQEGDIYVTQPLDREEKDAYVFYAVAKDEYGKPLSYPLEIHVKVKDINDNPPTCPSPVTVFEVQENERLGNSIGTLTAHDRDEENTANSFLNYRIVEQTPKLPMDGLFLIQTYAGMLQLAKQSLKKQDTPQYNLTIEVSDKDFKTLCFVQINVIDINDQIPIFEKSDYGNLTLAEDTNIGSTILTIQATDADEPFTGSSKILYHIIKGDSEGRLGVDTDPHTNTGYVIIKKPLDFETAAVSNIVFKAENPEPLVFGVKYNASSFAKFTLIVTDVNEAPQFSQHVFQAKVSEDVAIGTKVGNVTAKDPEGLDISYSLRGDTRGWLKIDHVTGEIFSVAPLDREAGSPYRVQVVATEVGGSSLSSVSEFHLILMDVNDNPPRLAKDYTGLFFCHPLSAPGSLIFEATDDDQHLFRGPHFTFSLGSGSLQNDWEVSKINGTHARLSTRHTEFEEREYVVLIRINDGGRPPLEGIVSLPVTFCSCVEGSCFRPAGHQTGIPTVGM

B1: m7C5 (antibody, V domains shown)
VH: QVQLQQSGAELARPGASVKLSCKASGYTFTSYGLSWVKQRTGQGLEWIGEIFPRSGNSYYNEKFKGKAALTADKSSSTAYMQLSSLTSEDSAVYFCARHYYSSLYYAMDYWGQGTSVTVSS
VL: DIQVTQSPASLSASVGESVSITCGTNENLYGALNWYQRKQGKSPQLLIYGATNLADGMSSRFSGSGSGRQYSLKISSLHPDDVATYYCQNVLSTPRTFGGGTKLEIK
On to B1, for which the EC50 with recombinant CDH17-hFc [1] stood at 4.2 ng/mL. The dissociation constant (Kd) with recombinant CDH17-hFc [2] stood at 20.6 nM.

B2: mLic3 (antibody, V domains shown)
VH: EVQLVESGGGLVKPGGSLKLSCAASGFSFSDYYMYWVRQAPEKRLEWVASISFDGTYTYYTDRVKGRFTISRDNAKNNLYLQMSSLKSEDTAMYYCARDRPAWFPYWGQGTLVTVSA
VL: DVLMTQIPLSLTVSLGDQASISCRSSQSIVHSNGNTYLEWYLQRPGQSPKLLIYKVSNRFSGVPDRFSGSGSGTDFTLKISRVEAEDLGVYYCFQGSHVPLTFGAGTKLELK
As to B2, in the experiment with recombinant CDH17-hFc [3], the concentration for a half-maximal effect (EC50) was 7.9 ng/mL. The dissociation constant Kd with recombinant CDH17-hFc [4] came out at 10.9 nM.
